The series concerns the molecule itself. Kind of series: native gel or EMSA; TS-actin and associated proteins purified on StrepTactin resin, eluted with 2 mM biotin, run at once on 4 to 16% native PAGE and blotted; with and without DSP cross-linking of cells before lysis; input also run. (In general: A gel shift assay detects complexes by their altered migration in electrophoresis.)

B1: Gl-14-3-3–HA (endogenously 3×HA C-terminally tagged Gl-14-3-3) (natural protein, Giardia lamblia, UniProt E2RU97 1-248, looked up)
chain: MAEAFTREDYVFMAQLNENAERYDEMVETMRKISGMEGELSDKERNLLSVAYKNVIGPRRAAWRIVSSIEAKEKGRQKPNAKRIEQIRVYRQKIEKELSDICNDILKLLQEQFVPRSTNADAKVFYYKMQGDYYRYLAEYSSGEDKEKIAGSALNAYNSAFEISQQLPPTHPIRLGLALNFSVFYYEILASPDRACELARKAFDAAITDLDKLTEESYKDSTLIMQLLRDNLNLWVTDSAGDDNAEEK
notes: Giardia lamblia 14-3-3 (Gl-14-3-3), the single 14-3-3 homolog, GL50803_6430; source: Giardia trophozoites, endogenously tagged (integrated copy), in lysate; not shown: 3xHA, C-terminal, kept
The term stoichiometry N denotes a count of units in the complex or per binding partner. B1: the “stoichiometry N” value stood at 2.

The values are drawn from paper PMC5597967, “14-3-3 Regulates Actin Filament Formation in the Deep-Branching Eukaryote Giardia lamblia” (mSphere, 2017).
